# Assay results from publication PMC10433963 (2023).
# Target: ^H7-SUMOClpC1^FLAG (recombinant ClpC1) (M. smegmatis, UniProt A0R574 1-848)
# Assay: MST; 1 mM ATPγS; Kapp from Hill fit
# ^H7-SUMOClpC1^FLAG (recombinant ClpC1), sequence (A0R574 whole entry): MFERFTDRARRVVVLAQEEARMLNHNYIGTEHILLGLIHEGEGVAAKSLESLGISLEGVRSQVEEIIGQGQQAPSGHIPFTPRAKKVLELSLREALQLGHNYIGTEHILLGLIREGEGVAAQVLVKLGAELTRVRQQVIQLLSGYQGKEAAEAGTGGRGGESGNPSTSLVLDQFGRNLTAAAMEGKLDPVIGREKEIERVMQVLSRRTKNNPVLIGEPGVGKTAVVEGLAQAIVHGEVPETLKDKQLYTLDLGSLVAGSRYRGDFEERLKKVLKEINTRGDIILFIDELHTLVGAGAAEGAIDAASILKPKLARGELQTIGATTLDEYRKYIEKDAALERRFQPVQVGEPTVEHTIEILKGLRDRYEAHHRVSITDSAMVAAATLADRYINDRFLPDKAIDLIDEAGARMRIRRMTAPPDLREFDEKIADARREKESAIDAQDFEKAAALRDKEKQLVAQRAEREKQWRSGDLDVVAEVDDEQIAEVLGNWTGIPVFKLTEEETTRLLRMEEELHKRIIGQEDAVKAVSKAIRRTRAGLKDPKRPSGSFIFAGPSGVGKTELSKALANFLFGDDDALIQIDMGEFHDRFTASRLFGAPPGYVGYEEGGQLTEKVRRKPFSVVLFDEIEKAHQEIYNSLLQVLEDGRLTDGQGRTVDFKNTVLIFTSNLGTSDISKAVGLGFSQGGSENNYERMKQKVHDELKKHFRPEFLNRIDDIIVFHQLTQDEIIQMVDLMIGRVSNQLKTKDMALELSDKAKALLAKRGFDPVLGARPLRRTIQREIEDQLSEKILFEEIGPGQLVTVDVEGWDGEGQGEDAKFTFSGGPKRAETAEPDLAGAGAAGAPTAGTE
row,Binder,Kd [µM]
1,Magnesium chelatase (recombinant) (natural protein) MVSQPKDLPRTVGELRASGHRERGVKAEIRENLLAALAERRDVWPGILGFEDTVIPQLERALIAGHDVVLLGERGQGKTRLLRALTGLLDEWTPVIAGSELGEHPYSPITPESIRRAADSGDDLPVEWRHRSERYTEKLATPDTSVADLVGDIDPIKVAEGRSLGDPETIAYGLIPRAHRGIVAVNELPDLAERIQVAMLNVMEERDIQVRGYTLRLPLDVLVVASANPEDYTNRGRIITPLKDRFGAEIRTHYPLELEAEVGVIRQEAELAAEVPEYLLAVLARFARNLRESNSIDQRSGVSARFAIAAAETVAASARHRAAILGEDDPVARVVDLGTVIDVLRGKLEFETGEEGREQAVLEHLLRRATADTAQRLLGGIDVGPLVAAIEEGSPVTTGERVSAKDVVAALPDLPAIDAIAHRLNAVSVGQRAAAIELALEALYLAKRIDKVSGEGETVYG,6.7
2,XRE (recombinant) (natural protein) MAQDENLAAVVSNAAQDIGSFIRAQREAAQVSVRQLAEKAGVSNPYLSQIERGLRKPSADVLNQIAKALRVSAEVLYVRAGILEPSEPSEVRDAIVNDVSITERQKQVLLDIYTSFRQQNEAAGEPEGAAVIPSPDEEPATD,4.6
3,DnaJ1 (recombinant) (natural protein) MAQREWVEKDFYKELGVSSDASADEIKKAYRKLAAELHPDRNSDPGAAERFKAVSEANSVLSDPAKRKEYDETRRLFAGGFGRRFNQGGGGFGGGFGSDGVEFNLGDLFDAAGQTGGANIGDLFGGLFGRGPQQRPSRPRRGNDLETETELSFLEATKGVAMPLRLTSPAPCTNCHGSGARPGTSPKVCPSCNGSGVISRNQGAFGFSEPCTECRGSGSIIEHPCQECRGTGVTTRTRTINVRIPPGVEDGQRIRLAGQGEAGLRGAPSGDLYVTVHVRPDKVFGRDGDDLTVTVPVSFHELALGTTLSVPTLDGKVGVRVPKGTSDGRILRVRGRGVPKRSGGHGDLLVTVKVAVPPNLEGEAAEALEAYAKAERASGFDPRAGWAGNV,6.4
4,GntR (recombinant) (natural protein) MSPTPDPQSAVPAREIAYRIVYDAIASGRYLPGQWIREDEVTAEAGVSRTPLREALQRLQSEGLVQLVRHRGALVVGWTSADLDDLFDIRVALETYGARRAAQRRGGAQLESLQKLCASMDEILPAAQEPELQQLGHLCIDFHRGIHEAADNRKLLSVMPMVLAPPFVSEAFHHHTRLELEQAFAHHRELVEAIAIGDEDWAEGVMRAHLRHGRRSLRRMERHLPLMTSHDAEPAVTDTGQPETTSSDPVHE,3.3
